Laboratory results reported in IntAct's records for PubMed 14613973.

B1: Fibroblast growth factor receptor 3 (Homo sapiens), P22607-1 (parent)
chain: MGAPACALALCVAVAIVAGASSESLGTEQRVVGRAAEVPGPEPGQQEQLVFGSGDAVELSCPPPGGGPMGPTVWVKDGTGLVPSERVLVGPQRLQVLNASHEDSGAYSCRQRLTQRVLCHFSVRVTDAPSSGDDEDGEDEAEDTGVDTGAPYWTRPERMDKKLLAVPAANTVRFRCPAAGNPTPSISWLKNGREFRGEHRIGGIKLRHQQWSLVMESVVPSDRGNYTCVVENKFGSIRQTYTLDVLERSPHRPILQAGLPANQTAVLGSDVEFHCKVYSDAQPHIQWLKHVEVNGSKVGPDGTPYVTVLKTAGANTTDKELEVLSLHNVTFEDAGEYTCLAGNSIGFSHHSAWLVVLPAEEELVEADEAGSVYAGILSYGVGFFLFILVVAAVTLCRLRSPPKKGLGSPTVHKISRFPLKRQVSLESNASMSSNTPLVRIARLSSGEGPTLANVSELELPADPKWELSRARLTLGKPLGEGCFGQVVMAEAIGIDKDRAAKPVTVAVKMLKDDATDKDLSDLVSEMEMMKMIGKHKNIINLLGACTQGGPLYVLVEYAAKGNLREFLRARRPPGLDYSFDTCKPPEEQLTFKDLVSCAYQVARGMEYLASQKCIHRDLAARNVLVTEDNVMKIADFGLARDVHNLDYYKKTTNGRLPVKWMAPEALFDRVYTHQSDVWSFGVLLWEIFTLGGSPYPGIPVEELFKLLKEGHRMDKPANCTHDLYMIMRECWHAAPSQRPTFKQLVEDLDRVLTVTSTDEYLDLSAPFEQYSPGGQDTPSSSSSGDDSVFAHDLLPPAPPSSGGSRT

Variants of: B1
Conditions: with fgf1_human FGF1, P05230
Sequence of fgf1_human FGF1, P05230 (P05230 whole entry): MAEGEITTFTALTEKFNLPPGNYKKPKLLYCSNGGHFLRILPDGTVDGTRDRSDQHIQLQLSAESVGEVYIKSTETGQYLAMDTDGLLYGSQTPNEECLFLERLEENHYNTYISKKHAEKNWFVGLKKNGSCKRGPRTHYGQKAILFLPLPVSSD

Variant | effect of a mutation on the interaction
P250R | increasing interaction strength

Variants of: B1
Conditions: with fgf2_human FGF2, P09038
Sequence of fgf2_human FGF2, P09038 (P09038 whole entry): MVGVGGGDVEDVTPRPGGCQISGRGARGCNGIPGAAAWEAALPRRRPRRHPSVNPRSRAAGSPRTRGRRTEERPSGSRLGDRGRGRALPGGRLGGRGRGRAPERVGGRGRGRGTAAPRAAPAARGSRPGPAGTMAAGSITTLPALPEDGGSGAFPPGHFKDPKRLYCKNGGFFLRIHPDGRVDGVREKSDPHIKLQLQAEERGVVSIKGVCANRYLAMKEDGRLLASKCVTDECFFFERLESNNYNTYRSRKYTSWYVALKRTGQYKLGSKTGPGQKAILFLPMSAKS

Variant | effect of a mutation on the interaction
P250R | causing an interaction

Variants of: B1
Conditions: with fgf9_human FGF9, P31371

Variant | effect of a mutation on the interaction
P250R | causing an interaction
